Source: publication doi:10.1101/2024.12.23.630145, “Setdb1 and Atf7IP form a hetero-trimeric complex that blocks Setdb1 nuclear export” (bioRxiv, 2024)
Positions count from the first letter of the chain named. Numbers in names are those of the source.

B1: 6Xhis-SUMO-Setdb1(Δα1; residues 35–114) (domain or fragment, human, UniProt Q15047 35-114, looked up)
chain: ISMEELRHFIDEELEKMDCVQQRKKQLAELETWVIQKESEVAHVDQLFDDASRAVTNCESLVKDFYSKLGLQYRDSSSED
notes: Setdb1, human, UniProt Q15047, residues 35–114 (helix α1 with NES#1 removed); source: E. coli (BL21DE3 or Rosetta2), purified (HisTrap, dialysis); not shown: His6, N-terminal, kept; SUMO, N-terminal, kept
B2: biotin-MBP-Atf7IP(574–666) (domain or fragment, human, UniProt Q6VMQ6 574-666, looked up)
chain: EEEYEAEFQVKITAKGDINQKLQKVIQWLLEEKLCALQCAVFDKTLAELKTRVEKIECNKRHKTVLTELQAKIARLTKRFEAAKEDLKKRHEH
modifications: biotin (on the Avi-tag)
notes: also called AviTag-MBP-Atf7IP; source: E. coli, co-expressed with birA with 40μM biotin, purified (MBPTrap, Superdex 200); not shown: AviTag, N-terminal, kept; MBP, N-terminal, kept
B3: 6Xhis-SUMO-Atf7IP(574–666) (domain or fragment, human, UniProt Q6VMQ6 574-666, looked up)
chain: B2 chain
notes: Printed mass 23.2 kDa; not shown: His6, N-terminal, kept; SUMO, N-terminal, kept
B4: MBP-Atf7IP (574–666) C608S C612S (domain or fragment, human, UniProt Q6VMQ6 574-666, looked up)
chain: B2 chain with C35S, C39S
notes: also called Atf7IP(C631); not shown: MBP, N-terminal, kept
B5: 6Xhis-SUMO-Setdb1(Δα1- α2; residues 50–114) (domain or fragment, human, UniProt Q15047 50-114, looked up)
chain: KMDCVQQRKKQLAELETWVIQKESEVAHVDQLFDDASRAVTNCESLVKDFYSKLGLQYRDSSSED
notes: Setdb1, human, UniProt Q15047, residues 50–114 (helices α1 and α2 removed); source: E. coli (BL21DE3 or Rosetta2), purified (HisTrap, dialysis); not shown: His6, N-terminal, kept; SUMO, N-terminal, kept

Tests used:
[1] = target: B2; assay: AlphaScreen or HTRF; His-sumo-Setdb1 on nickel chelate acceptor beads, biotin-MBP-Atf7IP(574–666) on streptavidin donor beads; 20nM each, or one at 20nM and the other 0–20nM; 50mM MOPS, 50mM CHAPS, 50mM NaF, 100μg/ml BSA, pH7; room temperature; conditions: both partners purified
GST-Setdb1(2–115) = target: T1, GST-Setdb1(2–115) (human, UniProt Q15047 2-115); assay: pull-down; 0.5 μM GST fusion on glutathione Sepharose beads; 1.5 μM hCRM1 with or without 4.5 μM Ran^GTP; MBP-Atf7IP(574–666) pre-incubated at 3-fold or 15-fold excess; TB buffer (20mM HEPES 7.4, 110mM potassium acetate, 2mM magnesium acetate, 10% glycerol, 2mM DTT, 0.005% Tween20); Coomassie SDS-PAGE; conditions: both partners purified
T1 construct: also called GST-Setdb1(2–114); source: E. coli, purified (GSTTrap, Superdex 200); not shown: GST, N-terminal, kept

His-sumo-Setdb1(2–115) = target: T2, His-sumo-Setdb1(2–115) (human, UniProt Q15047 2-115); assay: AlphaScreen or HTRF; His-sumo-Setdb1 on nickel chelate acceptor beads, biotin-MBP-Atf7IP(574–666) on streptavidin donor beads; 20nM each, or one at 20nM and the other 0–20nM; 50mM MOPS, 50mM CHAPS, 50mM NaF, 100μg/ml BSA, pH7; room temperature; conditions: both partners purified
T2 construct: source: E. coli (BL21DE3 or Rosetta2), purified (HisTrap, dialysis); not shown: His6, N-terminal, kept; SUMO, N-terminal, kept

[2] = target: the molecule itself; assay: SEC; isolated MBP-Atf7IP(574–666), gel filtration with and without Tween 20
[3] = target: the molecule itself; assay: native MS; co-expressed complex purified, exchanged into 400 mM ammonium acetate pH 7.9, 1 mM DTT; 500 nM; HCD 220 V for fragments
MBP-Setdb1(2–115) = target: T3, MBP-Setdb1(2–115) (human, UniProt Q15047 2-115); assay: SEC-MALS; co-expressed complex purified by MBP affinity; Superdex 200 Increase 10/300 GL; about 400 μL at ~1 mg/mL; conditions: both partners purified
T3 construct: Printed mass 56.7 kDa; also called MBP-Setdb1(2–114); source: E. coli, co-expressed with its partners; complex purified (MBPTrap, Superdex 200); not shown: MBP, N-terminal, kept

[4] = target: the molecule itself; assay: cross-linking; MBP-Atf7IP(574–666) C608S C612S in isolation, purified on amylose beads, non-reducing; SDS-PAGE with and without BME

Question: For B1, which “binding as percent of WT” value [1] is on record?
Answer: Its value is ~80 % of WT.

Question: Does B2 bind (GST-Setdb1(2–115))?
Answer: Result: binds

Question: Does B2 bind (His-sumo-Setdb1(2–115))?
Answer: Result: binds

Question: Does B2 bind [2]?
Answer: Result: binds

Question: Does B3 bind [3]?
Answer: Result: binds

Question: What about the “stoichiometry N” value (MBP-Setdb1(2–115)) of the same binder?
Answer: The value was 2 Atf7IP per Setdb1.

Question: Does B4 bind [4]?
Answer: Result: binds

Question: Which “binding as percent of WT” value [1] does the source give for B5 here?
Answer: The value was ~30 % of WT.
